Molecular target: estrogen receptor α (as used in the TR-FRET assay) (UniProt P03372)
Experiment: FRET or BRET

Sequence of estrogen receptor α (as used in the TR-FRET assay) (P03372 311-547): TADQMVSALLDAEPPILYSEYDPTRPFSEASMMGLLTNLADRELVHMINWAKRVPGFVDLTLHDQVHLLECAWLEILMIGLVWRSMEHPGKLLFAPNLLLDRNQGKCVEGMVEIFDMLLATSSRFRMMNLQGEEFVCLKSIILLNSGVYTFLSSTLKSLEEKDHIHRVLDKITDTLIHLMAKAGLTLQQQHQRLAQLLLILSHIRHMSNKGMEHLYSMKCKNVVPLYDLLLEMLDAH

## SRC2-WT (peptide)
  IC50: 1100 nM

Source: publication PMC5993042
